Results published in paper PMC8927117, “Structural Insight into the MCM double hexamer activation by Dbf4-Cdc7 kinase” (Nature Communications, 2022).
Values joined by “and” are separate entries in the source; they are usually repeats but may differ in a detail not shown here. Equal values may be shown once. Blank lines part the entries; values can stand above or below the binder they belong to.

B2: Dbf4 (subunit of the full-length DDK) (natural protein, budding yeast, UniProt P32325 1-704, looked up)
chain: MVSPTKMIIRSPLKETDTNLKHNNGIAASTTAAGHLNVFSNDNNCNNNNTTESFPKKRSLERLELQQQQHLHEKKRARIERARSIEGAVQVSKGTGLKNVEPRVTPKELLEWQTNWKKIMKRDSRIYFDITDDVEMNTYNKSKMDKRRDLLKRGFLTLGAQITQFFDTTVTIVITRRSVENIYLLKDTDILSRAKKNYMKVWSYEKAARFLKNLDVDLDHLSKTKSASLAAPTLSNLLHNEKLYGPTDRDPRTKRDDIHYFKYPHVYLYDLWQTWAPIITLEWKPQELTNLDELPYPILKIGSFGRCPFIGDRNYDESSYKRVVKRYSRDKANKKYALQLRALFQYHADTLLNTSSVNDQTKNLIFIPHTCNDSTKSFKKWMQEKAKNFEKTELKKTDDSAVQDVRNEHADQTDEKNSILLNETETKEPPLKEEKENKQSIAEESNKYPQRKELAATPKLNHPVLATFARQETEEVPDDLCTLKTKSRQAFEIKASGAHQSNDVATSFGNGLGPTRASVMSKNMKSLSRLMVDRKLGVKQTNGNNKNYTATIATTAETSKENRHRLDFNALKKDEAPSKETGKDSAVHLETNRKPQNFPKVATKSVSADSKVHNDIKITTTESPTASKKSTSTNVTLHFNAQTAQTAQPVKKETVKNSGYCENCRVKYESLEQHIVSEKHLSFAENDLNFEAIDSLIENLRFQI
notes: Dbf4, budding yeast, 704 residues; Stood in the assay as part of the DDK heterodimer

Key:
Assay in all cases: cryo-EM structure; DDK-DH mixture (ATP-γ-S) mildly crosslinked by Grafix: 20-40% glycerol gradient with 0-0.025% glutaraldehyde, 150 mM KOAc, pH 7.6, 4 °C; States I-IV and Groups I-VI by focused 3D classification
Conditions in all cases: both partners purified
[1] = target: B2
[2] = target: T1, Mcm6 (subunit of the MCM double hexamer) (budding yeast (endogenous in W303), UniProt P53091 1-1017)
T1 construct: Mcm6, budding yeast, endogenous protein from its genomic locus; Stood in the assay as a subunit of the DH; source: endogenous, G1 chromatin of budding yeast (W303), purified as part of the DH
T1 sequence (P53091 whole entry): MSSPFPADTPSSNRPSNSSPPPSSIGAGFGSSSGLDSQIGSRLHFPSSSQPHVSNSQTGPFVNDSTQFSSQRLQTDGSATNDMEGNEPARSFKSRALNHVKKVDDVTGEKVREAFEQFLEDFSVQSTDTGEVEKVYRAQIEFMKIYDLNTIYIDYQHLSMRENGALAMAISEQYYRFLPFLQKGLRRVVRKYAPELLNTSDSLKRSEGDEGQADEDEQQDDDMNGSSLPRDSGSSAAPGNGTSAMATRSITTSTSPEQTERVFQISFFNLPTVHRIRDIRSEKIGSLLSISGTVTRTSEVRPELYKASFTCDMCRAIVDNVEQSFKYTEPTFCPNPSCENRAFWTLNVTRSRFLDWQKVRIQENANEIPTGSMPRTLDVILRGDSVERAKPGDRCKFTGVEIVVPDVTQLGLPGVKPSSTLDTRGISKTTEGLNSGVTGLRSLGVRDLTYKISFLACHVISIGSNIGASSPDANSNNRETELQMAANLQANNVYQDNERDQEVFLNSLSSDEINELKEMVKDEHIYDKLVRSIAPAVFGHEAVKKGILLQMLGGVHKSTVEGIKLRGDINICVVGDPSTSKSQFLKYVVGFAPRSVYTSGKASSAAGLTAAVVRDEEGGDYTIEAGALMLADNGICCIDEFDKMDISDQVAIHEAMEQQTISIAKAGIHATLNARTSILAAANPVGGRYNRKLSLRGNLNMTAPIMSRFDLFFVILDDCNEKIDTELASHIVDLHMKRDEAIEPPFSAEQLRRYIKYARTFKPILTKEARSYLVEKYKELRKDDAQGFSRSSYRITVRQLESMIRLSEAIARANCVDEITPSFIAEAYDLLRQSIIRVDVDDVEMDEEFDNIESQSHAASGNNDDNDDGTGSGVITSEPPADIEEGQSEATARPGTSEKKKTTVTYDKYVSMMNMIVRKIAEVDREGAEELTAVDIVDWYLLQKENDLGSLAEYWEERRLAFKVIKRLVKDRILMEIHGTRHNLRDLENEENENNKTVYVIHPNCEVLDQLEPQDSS

[3] = target: T2, Mcm2 (subunit of the MCM double hexamer) (budding yeast (endogenous in W303), UniProt P29469 1-868)
T2 construct: Mcm2, budding yeast, endogenous protein from its genomic locus; Stood in the assay as a subunit of the DH; source: endogenous, G1 chromatin of budding yeast (W303), purified as part of the DH
T2 sequence (looked up): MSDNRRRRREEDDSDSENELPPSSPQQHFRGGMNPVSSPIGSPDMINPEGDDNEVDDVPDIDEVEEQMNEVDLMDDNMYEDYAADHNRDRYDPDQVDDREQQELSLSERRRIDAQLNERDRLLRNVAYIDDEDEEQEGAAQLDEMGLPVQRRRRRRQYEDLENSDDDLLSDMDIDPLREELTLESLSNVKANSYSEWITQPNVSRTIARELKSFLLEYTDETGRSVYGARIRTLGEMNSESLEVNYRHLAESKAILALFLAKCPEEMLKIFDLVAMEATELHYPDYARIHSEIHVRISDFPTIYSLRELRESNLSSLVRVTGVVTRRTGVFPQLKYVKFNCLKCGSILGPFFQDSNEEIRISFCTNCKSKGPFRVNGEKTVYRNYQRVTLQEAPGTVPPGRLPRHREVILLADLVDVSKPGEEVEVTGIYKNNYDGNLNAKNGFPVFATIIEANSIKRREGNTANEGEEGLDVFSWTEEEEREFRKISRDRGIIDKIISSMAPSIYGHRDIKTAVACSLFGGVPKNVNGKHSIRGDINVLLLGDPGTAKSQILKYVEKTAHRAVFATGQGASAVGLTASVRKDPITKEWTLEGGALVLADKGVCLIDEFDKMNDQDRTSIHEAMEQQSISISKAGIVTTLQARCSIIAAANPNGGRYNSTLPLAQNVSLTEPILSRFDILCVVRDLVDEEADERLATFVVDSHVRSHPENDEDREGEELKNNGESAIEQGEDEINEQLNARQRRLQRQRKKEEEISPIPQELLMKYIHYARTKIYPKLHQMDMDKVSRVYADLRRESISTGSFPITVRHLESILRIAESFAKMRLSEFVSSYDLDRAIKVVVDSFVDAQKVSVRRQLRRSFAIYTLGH

[4] = target: T3, Mcm4 (subunit of the MCM double hexamer) (budding yeast (endogenous in W303), UniProt P30665 1-933)
T3 construct: Mcm4, budding yeast, endogenous protein from its genomic locus; Stood in the assay as a subunit of the DH; source: endogenous, G1 chromatin of budding yeast (W303), purified as part of the DH
T3 sequence (looked up): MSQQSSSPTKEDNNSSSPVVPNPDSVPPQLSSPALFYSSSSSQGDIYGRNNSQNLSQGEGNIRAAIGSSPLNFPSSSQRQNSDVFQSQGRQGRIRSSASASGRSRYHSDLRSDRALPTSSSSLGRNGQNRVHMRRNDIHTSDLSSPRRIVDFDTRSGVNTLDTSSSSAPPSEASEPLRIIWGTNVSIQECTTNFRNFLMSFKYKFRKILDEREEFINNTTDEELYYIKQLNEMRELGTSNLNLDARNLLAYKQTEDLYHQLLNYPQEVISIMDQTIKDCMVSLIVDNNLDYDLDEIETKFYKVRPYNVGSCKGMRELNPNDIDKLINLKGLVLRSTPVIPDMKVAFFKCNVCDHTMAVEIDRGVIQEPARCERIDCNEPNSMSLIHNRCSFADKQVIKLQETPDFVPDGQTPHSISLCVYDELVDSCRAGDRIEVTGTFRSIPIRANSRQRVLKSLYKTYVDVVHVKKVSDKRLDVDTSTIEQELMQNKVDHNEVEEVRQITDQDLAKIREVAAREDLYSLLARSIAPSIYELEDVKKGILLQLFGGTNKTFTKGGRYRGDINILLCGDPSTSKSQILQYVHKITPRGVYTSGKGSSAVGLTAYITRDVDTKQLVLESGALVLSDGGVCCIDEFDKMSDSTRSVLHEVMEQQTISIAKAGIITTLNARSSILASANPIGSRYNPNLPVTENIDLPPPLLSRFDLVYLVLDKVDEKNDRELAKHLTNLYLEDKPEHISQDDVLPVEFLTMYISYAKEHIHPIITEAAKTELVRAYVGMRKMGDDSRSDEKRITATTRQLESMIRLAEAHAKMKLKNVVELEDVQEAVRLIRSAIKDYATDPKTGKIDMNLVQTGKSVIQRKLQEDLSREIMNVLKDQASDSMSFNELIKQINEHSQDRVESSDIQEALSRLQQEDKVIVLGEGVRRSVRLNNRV

[5] = target: T4, MCM double hexamer (Mcm2-7 double hexamer), endogenous, wild type (budding yeast (endogenous in W303), UniProt P29469 1-868; P24279 1-971; P30665 1-933; P29496 1-775; P53091 1-1017; P38132 …)
T4 construct: Mcm2, budding yeast, endogenous protein from its genomic locus; Mcm3, budding yeast, endogenous protein from its genomic locus; Mcm4, budding yeast, endogenous protein from its genomic locus; Mcm5, budding yeast, endogenous protein from its genomic locus; Mcm6, budding yeast, endogenous protein from its genomic locus; Mcm7, budding yeast, endogenous protein from its genomic locus; Either …
T4 sequence (P24279 whole entry, chain 2 of 4): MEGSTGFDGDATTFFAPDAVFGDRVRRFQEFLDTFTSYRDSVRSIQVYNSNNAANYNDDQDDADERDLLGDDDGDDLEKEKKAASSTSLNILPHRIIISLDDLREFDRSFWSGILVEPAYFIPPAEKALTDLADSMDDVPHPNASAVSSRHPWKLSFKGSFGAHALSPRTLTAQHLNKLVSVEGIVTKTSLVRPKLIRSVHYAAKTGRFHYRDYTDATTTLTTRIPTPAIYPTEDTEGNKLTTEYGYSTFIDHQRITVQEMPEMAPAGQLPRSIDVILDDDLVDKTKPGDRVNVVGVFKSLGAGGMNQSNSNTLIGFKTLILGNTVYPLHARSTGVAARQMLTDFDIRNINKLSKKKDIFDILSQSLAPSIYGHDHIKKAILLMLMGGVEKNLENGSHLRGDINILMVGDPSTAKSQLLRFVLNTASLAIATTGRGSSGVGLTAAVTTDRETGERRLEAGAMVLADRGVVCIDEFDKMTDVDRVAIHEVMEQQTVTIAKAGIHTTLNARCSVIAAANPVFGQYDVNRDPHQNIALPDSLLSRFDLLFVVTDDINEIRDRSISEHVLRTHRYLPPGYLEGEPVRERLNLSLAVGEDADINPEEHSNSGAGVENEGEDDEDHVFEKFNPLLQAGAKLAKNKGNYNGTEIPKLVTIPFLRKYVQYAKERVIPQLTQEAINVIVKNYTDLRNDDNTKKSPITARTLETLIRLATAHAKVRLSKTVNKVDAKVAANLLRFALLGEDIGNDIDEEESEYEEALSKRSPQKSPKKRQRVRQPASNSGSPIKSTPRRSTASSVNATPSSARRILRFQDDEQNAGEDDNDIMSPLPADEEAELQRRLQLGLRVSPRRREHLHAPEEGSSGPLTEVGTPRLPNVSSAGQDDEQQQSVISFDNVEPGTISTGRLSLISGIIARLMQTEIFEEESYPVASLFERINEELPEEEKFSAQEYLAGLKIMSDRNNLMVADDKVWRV
T4 sequence (P29496 whole entry, chain 4 of 4): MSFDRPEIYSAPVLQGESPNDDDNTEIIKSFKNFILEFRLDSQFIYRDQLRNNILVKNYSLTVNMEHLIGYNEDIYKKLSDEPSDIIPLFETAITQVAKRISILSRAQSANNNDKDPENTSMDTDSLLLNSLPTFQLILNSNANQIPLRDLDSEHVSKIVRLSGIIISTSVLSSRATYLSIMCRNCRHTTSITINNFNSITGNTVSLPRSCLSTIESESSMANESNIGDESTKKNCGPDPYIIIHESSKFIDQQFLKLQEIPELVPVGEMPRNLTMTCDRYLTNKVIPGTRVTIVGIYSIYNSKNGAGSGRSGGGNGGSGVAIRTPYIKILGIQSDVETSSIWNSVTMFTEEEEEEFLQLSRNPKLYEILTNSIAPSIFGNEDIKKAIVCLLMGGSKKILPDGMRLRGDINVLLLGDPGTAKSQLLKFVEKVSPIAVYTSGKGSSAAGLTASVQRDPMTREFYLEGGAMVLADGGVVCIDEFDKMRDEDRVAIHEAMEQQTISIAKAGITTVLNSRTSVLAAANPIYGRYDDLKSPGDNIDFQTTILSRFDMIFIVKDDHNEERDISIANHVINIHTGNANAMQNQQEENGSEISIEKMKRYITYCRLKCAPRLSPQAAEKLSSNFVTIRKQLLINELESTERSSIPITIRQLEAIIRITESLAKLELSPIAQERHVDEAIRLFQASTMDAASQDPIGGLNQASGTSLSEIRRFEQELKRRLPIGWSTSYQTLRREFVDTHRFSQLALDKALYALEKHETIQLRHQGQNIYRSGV
T4 sequence (P53091 whole entry, chain 5 of 4): as the sequence (P53091 whole entry) above
T4 sequence (P38132 whole entry, chain 6 of 4): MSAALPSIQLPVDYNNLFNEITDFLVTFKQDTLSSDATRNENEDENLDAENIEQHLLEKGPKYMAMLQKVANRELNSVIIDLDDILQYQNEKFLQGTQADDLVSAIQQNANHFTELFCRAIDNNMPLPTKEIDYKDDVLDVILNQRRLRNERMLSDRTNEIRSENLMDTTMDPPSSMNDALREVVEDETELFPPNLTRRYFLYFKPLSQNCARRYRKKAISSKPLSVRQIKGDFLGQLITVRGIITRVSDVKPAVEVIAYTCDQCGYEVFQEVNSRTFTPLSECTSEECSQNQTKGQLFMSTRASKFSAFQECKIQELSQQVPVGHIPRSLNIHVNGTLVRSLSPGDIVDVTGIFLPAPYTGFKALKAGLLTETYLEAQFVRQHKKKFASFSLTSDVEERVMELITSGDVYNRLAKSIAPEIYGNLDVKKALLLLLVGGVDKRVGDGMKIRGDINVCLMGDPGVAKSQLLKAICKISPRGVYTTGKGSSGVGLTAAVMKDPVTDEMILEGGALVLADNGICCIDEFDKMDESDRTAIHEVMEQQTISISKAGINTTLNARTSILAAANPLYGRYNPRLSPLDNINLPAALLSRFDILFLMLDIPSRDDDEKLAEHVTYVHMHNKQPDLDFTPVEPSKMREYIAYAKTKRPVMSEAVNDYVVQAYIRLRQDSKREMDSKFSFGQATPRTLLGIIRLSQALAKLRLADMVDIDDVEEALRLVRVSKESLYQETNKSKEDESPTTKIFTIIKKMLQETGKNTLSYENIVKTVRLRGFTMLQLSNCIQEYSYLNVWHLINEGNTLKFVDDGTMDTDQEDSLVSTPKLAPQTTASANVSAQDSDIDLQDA

binding result [1]: binds
B1: Cdc7 (subunit of the full-length DDK) (enzyme, budding yeast, UniProt P06243 1-507, looked up)
chain: MTSKTKNIDDIPPEIKEEMIQLYHDLPGIENEYKLIDKIGEGTFSSVYKAKDITGKITKKFASHFWNYGSNYVALKKIYVTSSPQRIYNELNLLYIMTGSSRVAPLCDAKRVRDQVIAVLPYYPHEEFRTFYRDLPIKGIKKYIWELLRALKFVHSKGIIHRDIKPTNFLFNLELGRGVLVDFGLAEAQMDYKSMISSQNDYDNYANTNHDGGYSMRNHEQFCPCIMRNQYSPNSHNQTPPMVTIQNGKVVHLNNVNGVDLTKGYPKNETRRIKRANRAGTRGFRAPEVLMKCGAQSTKIDIWSVGVILLSLLGRRFPMFQSLDDADSLLELCTIFGWKELRKCAALHGLGFEASGLIWDKPNGYSNGLKEFVYDLLNKECTIGTFPEYSVAFETFGFLQQELHDRMSIEPQLPDPKTNMDAVDAYELKKYQEEIWSDHYWCFQVLEQCFEMDPQKRSSAEDLLKTPFFNELNENTYLLDGESTDEDDVVSSSEADLLDKDVLLISE
notes: Cdc7, budding yeast; Stood in the assay as part of the DDK heterodimer; also called kinase core

Binder: B2
binding result [2]: binds | binding result [3]: binds | binding result [4]: binds

stoichiometry N [5]: 2 DDK per DH and 1 DDK per DH
B3: Dbf4-dependent kinase Cdc7 (DDK), full-length Cdc7-Dbf4 heterodimer (complex, budding yeast)
chain 1: MVSPTKMIIRSPLKETDTNLKHNNGIAASTTAAGHLNVFSNDNNCNNNNTTESFPKKRSLERLELQQQQHLHEKKRARIERARSIEGAVQVSKGTGLKNVEPRVTPKELLEWQTNWKKIMKRDSRIYFDITDDVEMNTYNKSKMDKRRDLLKRGFLTLGAQITQFFDTTVTIVITRRSVENIYLLKDTDILSRAKKNYMKVWSYEKAARFLKNLDVDLDHLSKTKSASLAAPTLSNLLHNEKLYGPTDRDPRTKRDDIHYFKYPHVYLYDLWQTWAPIITLEWKPQELTNLDELPYPILKIGSFGRCPFIGDRNYDESSYKRVVKRYSRDKANKKYALQLRALFQYHADTLLNTSSVNDQTKNLIFIPHTCNDSTKSFKKWMQEKAKNFEKTELKKTDDSAVQDVRNEHADQTDEKNSILLNETETKEPPLKEEKENKQSIAEESNKYPQRKELAATPKLNHPVLATFARQETEEVPDDLCTLKTKSRQAFEIKASGAHQSNDVATSFGNGLGPTRASVMSKNMKSLSRLMVDRKLGVKQTNGNNKNYTATIATTAETSKENRHRLDFNALKKDEAPSKETGKDSAVHLETNRKPQNFPKVATKSVSADSKVHNDIKITTTESPTASKKSTSTNVTLHFNAQTAQTAQPVKKETVKNSGYCENCRVKYESLEQHIVSEKHLSFAENDLNFEAIDSLIENLRFQI
chain 2: MTSKTKNIDDIPPEIKEEMIQLYHDLPGIENEYKLIDKIGEGTFSSVYKAKDITGKITKKFASHFWNYGSNYVALKKIYVTSSPQRIYNELNLLYIMTGSSRVAPLCDAKRVRDQVIAVLPYYPHEEFRTFYRDLPIKGIKKYIWELLRALKFVHSKGIIHRDIKPTNFLFNLELGRGVLVDFGLAEAQMDYKSMISSQNDYDNYANTNHDGGYSMRNHEQFCPCIMRNQYSPNSHNQTPPMVTIQNGKVVHLNNVNGVDLTKGYPKNETRRIKRANRAGTRGFRAPEVLMKCGAQSTKIDIWSVGVILLSLLGRRFPMFQSLDDADSLLELCTIFGWKELRKCAALHGLGFEASGLIWDKPNGYSNGLKEFVYDLLNKECTIGTFPEYSVAFETFGFLQQELHDRMSIEPQLPDPKTNMDAVDAYELKKYQEEIWSDHYWCFQVLEQCFEMDPQKRSSAEDLLKTPFFNELNENTYLLDGESTDEDDVVSSSEADLLDKDVLLISE
notes: Dbf4, budding yeast, 704 residues; Cdc7, budding yeast; Treated with lambda phosphatase during purification; also called Dbf4-Cdc7 kinase complex; WT DDK
